Results taken from patent US20160068605A1 (Janssen / Centocor, published 2016).

What was measured:
[1] = biological target: T1, Recombinant human CD123 SP2 ECD protein (human, UniProt P26951 101-303); experiment: SPR ProteOn, captured mAb
T1 construct: also called rhCD123 SP2; CD123 ECD SP2
T1 sequence: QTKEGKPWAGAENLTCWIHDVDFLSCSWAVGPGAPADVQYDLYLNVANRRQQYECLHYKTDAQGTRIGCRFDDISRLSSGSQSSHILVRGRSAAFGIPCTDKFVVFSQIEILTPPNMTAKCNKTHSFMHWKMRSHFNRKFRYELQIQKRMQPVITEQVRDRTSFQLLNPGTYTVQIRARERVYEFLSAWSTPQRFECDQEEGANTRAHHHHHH

[2] = biological target: T2, Recombinant human CD123 SP1 ECD-His tag protein (human, UniProt P26951 20-305); experiment: SPR ProteOn, captured mAb
T2 construct: bought from R&D Systems (#301-R3/CF); biotinylated for some assays; also called rhCD123 SP1; huCD123 ECD SP1
T2 sequence: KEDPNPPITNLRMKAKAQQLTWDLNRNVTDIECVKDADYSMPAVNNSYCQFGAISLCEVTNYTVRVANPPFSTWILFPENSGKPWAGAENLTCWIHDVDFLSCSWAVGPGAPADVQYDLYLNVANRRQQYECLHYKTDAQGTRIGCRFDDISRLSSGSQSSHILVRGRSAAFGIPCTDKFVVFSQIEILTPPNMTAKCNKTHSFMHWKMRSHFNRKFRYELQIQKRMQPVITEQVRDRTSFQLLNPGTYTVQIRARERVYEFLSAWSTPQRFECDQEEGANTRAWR

[3] = biological target: T1, Recombinant human CD123 SP2 ECD protein; experiment: SPR Biacore 3000, captured mAb
Protocol: (§1) Kinetic studies were performed at 25° C. using a Biacore 3000 (BIAcore, Inc., now part of GE Healthcare). […] Sheep anti-Human Fd specific antibody (The binding site Prod # PC075) was covalently attached to two flow cells (normally 3 and 4) of the carboxymethyl dextran coated gold surfaces (CM-5 Chip, Biacore). The carboxymethyl groups of dextran were activated with N-Ethyl-N′-(3-Dimethylaminopropyl)carbodiimide (EDC) and N-hydroxysuccinimide (NHS). The antibodies were coupled at pH 4.5 in 10 mM sodium acetate. Any remaining reactive sites on the surface were blocked by reaction with ethanolamine. […] Association data was collected for 2 min followed by 10 min of dissociation. The surface was regenerated with 30 μL of 100 mM H3PO4 100 μL/min. All samples were prepared in D-PBS containing 3 mM EDTA and 0.005% surfactant P20. Data reported is the difference in SPR signal between the flow cell containing the captured antibody or Fab and a reference cell without captured antibody or Fab. Additional instrumental contributions to the signal were removed by subtraction of the data from the blank injection from the reference-subtracted signal. Data were performed in triplicate and analyzed by fitting association and dissociation phases at all concentrations (global fit) with a 1:1 binding model using the BIAevaluation software (BIAcore, Inc.). […] Data presented is an average.

[4] = biological target: T2, Recombinant human CD123 SP1 ECD-His tag …; experiment: SPR Biacore 3000, captured mAb
Protocol: as §1

[5] = biological target: T3, human CD123 SP1 ECD displayed on pDisplay-transfected cells (human, UniProt P26951 20-305); experiment: MSD-CAT, hCD123 cells, assay-1; apparent KD (bivalent)
T3 construct: ECD anchored on the surface of stably transfected HEK293 cells by the PDGFR transmembrane domain; also called hCD123 SP1 cells; hCD123 cells
T3 sequence: T2 sequence

[6] = biological target: T4, cyno CD123 ECD displayed on pDisplay-transfected cells (cynomolgus monkey); experiment: MSD-CAT on pDisplay cells
T4 construct: ECD anchored on the surface of stably transfected HEK293 cells; also called cynoCD123 SP1 cells; cynoCD123 cells
T4 chain: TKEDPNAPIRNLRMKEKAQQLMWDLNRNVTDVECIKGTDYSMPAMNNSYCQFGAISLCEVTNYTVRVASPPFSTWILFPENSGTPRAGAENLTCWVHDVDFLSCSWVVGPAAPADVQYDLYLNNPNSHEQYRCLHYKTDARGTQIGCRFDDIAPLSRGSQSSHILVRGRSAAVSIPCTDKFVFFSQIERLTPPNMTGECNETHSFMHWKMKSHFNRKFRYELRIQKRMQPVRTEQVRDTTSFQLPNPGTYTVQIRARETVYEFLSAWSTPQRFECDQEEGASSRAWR
Protocol: After equilibration the plate was centrifuged for 5 min ˜1000 rpm and free anti-CD3 detected on the supernatant. […] The assay buffer was removed without washing and 50 μL/well of 0.7 μg/mL of biotinylated antigen in assay buffer were added to MSD plates and incubated overnight (˜16 hr at 4° C.). After overnight incubation, the plates were blocked by adding 150 μL/well of assay buffer without removing coating antigen, incubated for ˜1 hr at ambient temperature and washed 5 times with wash buffer (assay buffer without BSA). 50 μL/well of the supernantants from samples plate were transferred to antigen-coated plates, incubated for 60 min, and then washed three times with wash Buffer. After this 50 μL per well of ruthenium labeled detection antibody(anti-human H+L) were added and incubated for 1 hr. After 1 hr the plates were washed and 150 μL of MSD Read Buffer (prepared by diluting 1:4 of stock into d. H₂O) were added per well. The plates were read immediately on the MSD Sector Imager 6000 Reader for luminescence levels. ECL signal detected by MSD was expressed in term of % free antibody in the mixture and the data was analyzed to determine affinity using a user defined equation (derived from the law of mass action) introduced in Prism software.

Kd [1]: 0.363 nM
koff [1]: 0.000978 s⁻¹
kon [1]: 2.69e+06 M⁻¹ s⁻¹
Kd [2]: 0.57 nM
koff [2]: 0.00082 s⁻¹
kon [2]: 1.44e+06 M⁻¹ s⁻¹
Kd [3]: 0.3 nM
Kd [4]: 1.2 nM
koff [4]: 0.000808 s⁻¹
kon [4]: 688000 M⁻¹ s⁻¹
Kd [5]: 0.055 nM
fold weaker than to human CD123 SP1 [6]: > 10 fold
B1: I3RB18 (antibody, IgG1, V domains shown)
VH: EVQLVQSGAEVKKPGESLKISCKGSGYSFTSYWISWVRQMPGKGLEWMGIIDPSDSDTRYSPSFQGQVTISADKSISTAYLQWSSLKASDTAMYYCARGDGSTDLDYWGQGTLVTVSS
VL: EIVLTQSPGTLSLSPGERATLSCRASQSVSSSYLAWYQQKPGQAPRLLIYGASSRATGIPDRFSGSGSGTDFTLTISRLEPEDFAVYYCQQDYGFPWTFGQGTKVEIK
notes: IgG1; also called 13RB18; mAb I3RB18
